Data set [1] can be described thus: Daratumumab pharmacokinetics in patients with light chain (AL) amyloidosis. Format: in vivo, human.
Data set [2] has as its target T1, CD38 on red blood cells (RBCs) (Homo sapiens, UniProt P28907).
T1 construct: endogenous in cells; host or cells: red blood cells (patient / reagent RBCs)
Nature of the data set: Interference with serological testing (Indirect Antiglobulin Test). An excerpt: Since the Kell blood group system is also sensitive to DTT treatment, supply K-negative units after ruling out or identifying alloantibodies using DTT-treated RBCs.

The conditions of data set [3]: human, in vivo.
For data set [4], the system named is patients with relapsed or refractory multiple myeloma. Description: COLUMBA randomized non-inferiority study, DARZALEX FASPRO monotherapy versus intravenous daratumumab.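 Also: randomized arms stratified by body weight, myeloma type and count of earlier treatment lines, enrolled patients having a median of 4 previous lines.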
Source text: The major efficacy outcome measures were ORR by the IMWG response criteria and maximum Ctrough at pre-dose Cycle 3 Day 1 [see Clinical Pharmacology (12.3)]. Randomization was stratified by body weight, myeloma type, and number of prior lines of therapy.
Patients had received a median of 4 prior lines of therapy. […] Forty-nine percent of patients were refractory both a PI and an immunomodulatory agent. Eighty-two percent of patients were refractory to their last line of prior systemic therapy.
Data set [5] relates to monkeys. Description: Hyaluronidase given subcutaneously to monkeys (systemic exposure, reproductive tissues). Format: in vivo. As to the method:
No carcinogenicity, genotoxicity, or fertility studies were conducted for recombinant human hyaluronidase. […] As hyaluronidase is a recombinant form of the endogenous human hyaluronidase, no carcinogenicity, mutagenesis, or effects on fertility are expected.

Data set [6] has as its system pregnant mice and offspring. Description: Hyaluronidase developmental toxicity in mice. Format: in vivo. An excerpt: There were no effects on pre- and post-natal development through sexual maturity in offspring of mice treated daily from implantation through lactation with 990,000 U/kg hyaluronidase subcutaneously, which is 134 times higher than the human doses.
The mark [7] stands for this setting: All Grades, worsening from baseline.
Setting [8] is: monkeys given 22,000 U/kg/week subcutaneously for 39 weeks.

The values that follow come from US20230233676A1, “Use of Approved Anti-CD38 Antibody Drug Product in Combination with Pomalidomide and Dexamethasone to Treat Multiple Myeloma” (Janssen Biotech, Inc., priority 2022, published 2023).

Like-named read-outs stand apart in the source and are kept apart here. Marks after values point to notes of the source that are not given here.

As for “Daratumumab: immunoglobulin G1 kappa (IgG1κ) human monoclonal antibody that binds to the CD38 antigen; heavy chain SEQ ID NO: 12, light chain SEQ ID NO: 13”, the “estimated mean volume of distribution” value in data set [1] (CV 28%) was 10.8 L. Further, the “estimated mean linear clearance” value in data set [1] (CV 42%) is 210 mL/day. In addition, in data set [1] (CV 74%), the “estimated mean elimination half-life associated with linear clearance” value is 28 days. In data set [2], the “Indirect Antiglobulin Test (Indirect Coombs test)” value is “positive” and the “persistence of positive indirect antiglobulin test after the last administration” value is recorded as “up to 6 months”. Also, in data set [3], the “estimated mean elimination half-life associated with linear clearance” value is on record as 20 days; the “estimated mean linear clearance” value was 119 mL/day; the “estimated mean volume of distribution for the central compartment” value is given as 5.2 L; the “estimated mean volume of distribution, peripheral compartment” value is given as 3.8 L. Further, the “pharmacokinetics in geriatric patients compared to younger adult patients” value in data set [3] is recorded as “No clinically meaningful differences”.
In data set [4] (All Grades), “Intravenous Daratumumab: daratumumab 16 mg/kg administered intravenously” yielded a Back pain of 12%, a Chills of 12%, a Cough of 14% and a Diarrhea of 11%. In addition, in data set [4] (All Grades), the Dyspnea was found to be 11%, the Fatigue came out at 16%, the Infusion reactions is on record as 34% and the Nausea amounted to 11%. In data set [4] (All Grades), this molecule registered a Pneumonia of 10% and a Pyrexia of 13%. In data set [4] (setting [7]), the Decreased hemoglobin was determined as 39%, the Decreased leukocytes came out at 57%, the Decreased lymphocytes turned out to be 56% and the Decreased neutrophils stood at 43%. The Decreased platelets in data set [4] (setting [7]) worked out at 45%. For the same molecule, in data set [4] (Grade ≥3), the Back pain is recorded as 3^# %, the Chills is listed as 1^# %, the Cough came out at 0% and the Diarrhea is given as 0.4^# %. For the same molecule, in data set [4] (Grade ≥3), the Dyspnea is on record as 1^# %, the Fatigue is given as 2^# %, the Infusion reactions was 5^# % and the Nausea is on record as 0.4^# %. Moreover, in data set [4] (Grade ≥3), the Pneumonia is recorded as 6^@ % and the Pyrexia was 1^# %. Also, in data set [4] (Grades 3-4), the Decreased hemoglobin is reported as 16%, the Decreased leukocytes is recorded as 14%, the Decreased lymphocytes is listed as 36% and the Decreased neutrophils is given as 11%. In data set [4] (Grades 3-4), this molecule returned a Decreased platelets of 14%. Moreover, in data set [4] (in vivo), the CR or better entry was “(2.7%)”, the Median progression-free survival stood at 6.1 months, the “Partial response (PR)” value is reported as “(20%)” and the “Very good partial response (VGPR)” value is “(14%)”. Moreover, the “Overall response (sCR + CR + VGPR + PR)” value in data set [4] (intent-to-treat population) is listed as “(37%)”. The “Observed mean ± SD max Ctrough after 8th dose” value in data set [3] was 522 ± 226^a,b μg/mL.

B1: hyaluronidase: recombinant hyaluronidase rHuPH20 having the amino acid sequence of SEQ ID NO: 22 (protein, listed as Homo sapiens)
chain: LNFRAPPVIPNVPFLWAWNAPSEFCLGKFDEPLDMSLFSFIGSPRINATGQGVTIFYVDRLGYYPYIDSITGVTVNGGIPQKISLQDHLDKAKKDITFYMPVDNLGMAVIDWEEWRPTWARNWKPKDVYKNRSIELVQQQNVQLSLTEATEKAKQEFEKAGKDFLVETIKLGKLLRPNHLWGYYLFPDCYNHHYKKPGYNGSCFNVEIKRNDDLSWLWNESTALYPSIYLNTQQSPVAATLYVRNRVREAIRVSKIPDAKSPLPVFAYTRIVFTDQVLKFLSQDELVYTFGETVALGASGIVIWGTLSIMRSMKSCLLLDNYMETILNPYIINVTLAAKMCSQVLCQEQGVCIRKNWNSSDYLHLNPDNFAIQLEKGGKFTVRGKPTLEDLEQFSEKFYCSCYSTLSCKEKADVKDTDAVDVCIADGVCIDAFLKPPMETEEPQIFY
Regarding B1, in data set [5] (monkeys given 22,000 U/kg subcutaneously), the “systemic exposure of hyaluronidase” value is given as “No systemic exposure”. For the same molecule, in data set [5] (setting [8]), the “effects on reproductive tissues and function” value is “no effects”; the “systemic exposure of hyaluronidase” value is “no systemic exposure”. Besides, in data set [6] (mice treated daily during lactation with 990,000 U/kg subcutaneously), the “effects on post-natal development through sexual maturity in offspring” value is listed as “no effects”. For the same molecule, the “effects on pre- and post-natal development through sexual maturity in offspring” value in data set [6] (mice treated daily from implantation through lactation with 990,000 U/kg subcutaneously) is “no effects”. Further, the “effects on embryo-fetal development” value in data set [6] (pregnant mice given 330,000 U/kg subcutaneously daily during organogenesis) is on record as “no effects”.
